From patent US20210403546A1 (published 2021)

Biological target: human recombinant TGF-b1 (human, UniProt P01137 279-390)
Experiment: Biacore SPR

Chain of human recombinant TGF-b1 (P01137 279-390): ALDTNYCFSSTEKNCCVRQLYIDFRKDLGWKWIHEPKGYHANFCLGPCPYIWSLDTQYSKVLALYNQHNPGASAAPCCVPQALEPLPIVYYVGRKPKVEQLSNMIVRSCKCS

Kd [nM] | Binder
0.639 | 13A1_2F Fab (LCR13A1_VK_GLv1_05 + LCR13A1_VH_GLv1_03, stable Fab) (Fab, V domains shown) VH: QVQLVQSGSVLAKPGASVKVSCKASGYTFTNYWMHWVRQAPGQGLEWIGTIYPGNSDTNYNQKFKDRAKLTAVTSTSTVYMELSSLRSEDTAVYYCTREDSRSLYYNGWDYFDYWGQGTLVTVSS VL: DIVMTQSPDSLAVSLGERATISCRASESVDNYGISFLNWFQQKPGQPPKLLIYAASNQGSGVPSRFSGSGSGTDFTLNIHPLEAEDAATYYCQQSKEVPRTFGGGTKVEIK
0.615 | 13A1_2B Fab (LCR13A1_VH_GLv1_03_LCR13A1_VK_GLv3, stable Fab) (Fab, V domains shown) VH: QVQLVQSGSVLAKPGASVKVSCKASGYTFTNYWMHWVRQAPGQGLEWIGTIYPGNSDTNYNQKFKDRAKLTAVTSTSTVYMELSSLRSEDTAVYYCTREDSRSLYYNGWDYFDYWGQGTLVTVSS VL: DIVMTQSPDSLAVSLGERATINCKSSESVDNYGISFLNWFQQKPGKAPKLLIYAASNQGSGVPDRFSGSGSGTDFTLTISSLQAEDVAVYFCQQSKEVPRTFGGGTKLEIK
